Measured values taken from the DeepSol protein solubility set.

Experiment: soluble on expression in E. coli; label from the status in PepcDB or PDB records
With “TSLFTTADHYHTPLGPDGTPHAFFEALRDEAETTPIGWSEAYGGHWVVAGYKEIQAVIQNTKAFSNKGVTFPRYETGEFELMMAGQDDPVHKKYRQLVAKPFSPEATDLFTEQLRQSTNDLIDARIELGEGDAATWLANEIPARLTAILLGLPPEDGDTYRRWVWAITHVENPEEGAEIFAELVAHARTLIAERRTNPGNDIMSRVIMSKIDGESLSEDDLIGFFTILLLGGIDATARFLSSVFWRLAWDIELRRRLIAHPELIPNAVDELLRFYGPAMVGRLVTQEVTVGDITMKPGQTAMLWFPIASRDRSAFDSPDNIVIERTPNRHLSLGHGIHRCLGAHLIRVEARVAITEFLKRIPEFSLDPNKECEWLMGQVAGMLHVPIIFPKGKRLSE” the “soluble on expression in E. coli” value was “soluble”.
In the case of “ENGRLVELPDNDKSDALQFLATILEAVPSIPAGSNIVEIVLEHEKNSNTSLGFGWACPHARVNFDGDLCCAIGWSPAGIDYGIAGEPLVRLVVMFFVPENQRNTYLKEVSTLARVLKSNPEFQNLEPIGDLDQVRNTLLDMTHQAMSE”, the “soluble on expression in E. coli” value is reported as “not soluble”.
For “MAHHHHHHMMDDQSSTSGGPQEGRDADHRQNHGNVLFVGNLPFQTPWQHVKDHFRKAGKVRYTDLIADRMGRPKGSALVTMVTAEGAQRAIRMYNETDFEGRRLIVRLFDDGPRPPIVQRGMMPQYDRQTQQQQPQQQSQRFRGYTGASSGGSNYNNTTNFGRRADYMGRGGYTMEEDLNATSLNDMGDSVPKPRSQQVNEFGRKLFVSNLPFDCTSSALRETFQQVGNVERAEVILGRNGKSRGMGIVVMRTEKETRLAIEEFDGIEMANRAMSVRLDNKTTA”, the “soluble on expression in E. coli” value was “soluble”.
In the case of “MKNVIACISSPRRVQSICDYAIWAVRRLGSELELLHVVEREQDAVPIADLSGGIWMGTQETLLKELAELDERRQQLAQEQGRQLLQAATERAREAGIQGLAGLARQGYLVDVLLELEDDARLFVMGQHDRPTKPSRLLPDQHLEAAVRALHRPVLVAG”, the “soluble on expression in E. coli” value is reported as “not soluble”.
In the case of “MGSDKIHHHHHHMIHEQDVQKLLNYITSHFGVDPERWFHPEGYQSIALAILDSIYSTGNRYTGVLNLVNRYCGLRANEGSHPEADTATDLIETFYRWGGVDEFVLKTNNRWRTSSKIHAPYKAYAALEAAKVLAGHSIESISDVVGRFDSRESREHSDIAREWLMITGQSSALTWSYFLMLVGVPGVKADRMIVRFVTHVLERPKEISRHEASRLIEEVADIMCVNYIYLDHTIWRFQSGRPYLQEDSSPFE”, the “soluble on expression in E. coli” value is reported as “not soluble”.
With “MGHHHHHHSHRRQHPLPLLLLRHLRPQAHREPPQVYTSSQPLRVGYYETDNYTMPSPAMRRAVLETKQSLEAAGHTLVPFLPSNIPHALETLSTGGLFSDGGHTFLQNFKGDFVDPCLGDLVSILKLPQWLKGLLAFLVKPLLPRLSAFLSNMKSRCTAKP” the “soluble on expression in E. coli” value was “not soluble”.
For “MAHHHHHHMLSIGMTAMDTEGDVTQMELSALLVHIERCERLLRHPTLLSRLPDEGETIRSRHALYVAERSRREVGGDASSSRKENDAVEGSVRQVERQISQMTLSTEEKSEKTATMPMECHASLNTDGWTVGAGGKAVESYEDVARAVGEKHRHSRIPVEMIVRQTFGGSLCEAEIQRMLCDVPPNFFLTHDETISMQRKLLSEERLEALTRLRNQRHAEL”, the “soluble on expression in E. coli” value was “not soluble”.
With “MGSDKIHHHHHHVQYLDKLVSGLAVELHVPEGDYEGNYKTHVDEIGKTRLSVYAPHYQGMIIPLQEGTLVEVTFWDDVASYSFMSSVLQRVATPIPMFVLKMPDSIRRVQRRNYVRVSASFPITYQVVEREGLGDLLKGNMLDLSGGGMRFQAKVKLDKGSILYANLELPCGIIGTPGRVCRVEPIEDTKYFSVSVDFYQISERDRDRIIRCVFDIQRDLRKKGLI” the “soluble on expression in E. coli” value was “not soluble”.
With “MGSDKIHHHHHHMTEDQAFWNAFAPDYAAAEQASRLPIAHDVIAWLRSTQLLPAHSAVDLAAGTGRYAVQMMPWVQELTLIDWSSAMLAFAKERMHQQADTKAQFIVADWRKLHKPLNADMLFVSQLPTLKPQDLKMLMNWASQTVVLNFQTAQSDALLEQAASLLGLQLPPVYQADPARMISFKVWLTAQRIPFQSHSLTYEIEEQTTLSDLLPDLATPIGLKTAASLAKAITGHENTHVQVTDRLTYTYTQLVWHV” the “soluble on expression in E. coli” value was “not soluble”.
For “IEGIPVYLLDKESGPFSFFHWIFIYPQAHPQNELSEILTHEGTHARQRHSIDVIISELMCIACWFNPFMWLMKREVRNNLEYMADNRVLEAGHDSKSYQYHLLGLAHQKSAITLSNSFNVLPLKNRITMM”, the “soluble on expression in E. coli” value was “not soluble”.
With “MPEAWAPVRPETPPAPELLYWNAELADELGLDAGQTDKGELARLFSGADIPEGAQPIAQAYAGHQFGGLSPSLGDGRALLLGEVTDRNGQRRDIALKGSGQTPFSRRGDGKAAVGPMLRELIVGEAMQALGIPTTRALAVTTTGEPVYRERPLPGAVLTRVAASHLRVGTFQYFAIRGETAMLNKLADYTIARHYPQLAGRDGRHLALLAAVAERQAALIARWMHAGFIHGVMNTDNMALSGETIDYGPCAFMDAHYPGTVFSSIDHQGRYAYGNQPAIAQWNLARFAETLLPLISPDDPAAAVPAATEIVEGFEDLYQRRWLEQARRKLGLEGERDDDQALADDWLMLLAAHGVDHTLAWRYLADEAEGKGERLAALFPSPDALTPWLKQWHARHVPRTRRPPDIAAAMRRESPLYIPRNHLVEEALDAASERGDMGPTLKLLEALHQPFAERDGLDRYAQPAAAELAEGYRTFCGTLEHHHHHH” the “soluble on expression in E. coli” value was “not soluble”.
In the case of “GMTESDRDYIQSIERGFAVLLAFDAQRPNPTLAELATEAGLSRPAVRRILLTLQKLGYVAGSGGRWSLTPRVLSIGQHYSESHALIEAAMPRLLEVAEKTQESASLGVLDGADVVYAARVPVRRIMSINVSVGTRVPAYATSMGRALLAWAPADVVERVVAESTFQKLGPETIGTAAELERELAKVREQGFALTSEELEKGLISLAAPVHDAGGTVVGVVACSTSSARNTPAQFREQAVPCVLAAAAALSADMGFAG”, the “soluble on expression in E. coli” value is reported as “soluble”.
With “MEKHEEENGLCKAESVDGSLDVWSCQNSDSSSADHLVVMVHGILGSTDDWKFGAEQFVKKMPDKVFVHCSEKNVSALTLDGVDVMGERLAAEVLDIIQRKPNICKISFVAHSLGGLAARYAIGKLYKPANQEDVKDSVADSSQETPKGTICGLEAMNFITVATPHLGSMGNKQVPFLFGFSSIEKVAGLIIHWIFKRTGRHLFLKDEEEGKPPLLRRMVEDTDDCHFISALRAFKRRVAYSNVGHDHVVGWKTASIRRDSELPKWEDSLNEKYPHIVYEELCKACDMEDIPEGENHSDDIEEEMIKGLSSVSWEKVDVSFHSSRQRFAAHSVIQVKNEDMHIEGADVIEHIIDHFHA” the “soluble on expression in E. coli” value was “soluble”.
In the case of “MKFSDFFHAWLHESYYKNAVSIGKNGDFFTAVSVGNLFGTLLAKHFLNLIDEKILKPPLELVEIGANEGYLSRDFLAALLELRPEIFSQISFFIIEPHEKLRTLQKKTLEGVEFTHKNSLKECHFKNAFFFCNELFDSFTCELIDHDKMAFVENFKLIFKNMDENLITKCKALNLTKGELSLELENFFKDLNQTCERFIFAGFDYGTLNPQSFSLRIYQKHEVFSPFEVSLKDFFGKSDLTYNVNFTHLQKLIKEYDFKPLAFKKQSLAFMDFGFEDLLEYAKNKNIKTYESFLSQAKILFFNFDEKFHFFEFQKNMGHHHHHHSH”, the “soluble on expression in E. coli” value is reported as “soluble”.
With “MAIALVTGGSRGIGRATALLLAQEGYTVAVNYQQNLHAAQEVMNLITQAGGKAFVLQADISDENQVVAMFTAIDQHDEPLAALVNNAGILFTQCTVENLTAERINRVLSTNVTGYFLCCREAVKRMALKNGGSGGAIVNVSSVASRLGSPGEYVDYAASKGAIDTLTTGLSLEVAAQGIRVNCVRPGFIYTEMHASGGEPGRVDRVKSNIPMQRGGQAEEVAQAIVWLLSDKASYVTGSFIDLAGGK” the “soluble on expression in E. coli” value was “not soluble”.
In the case of “SNAGLIDESEQRLVDNIFEFEEKKIREIMVPRTDMVCIYESDSEEKILAILKEEGVTRYPVCRKNKDDILGFVHIRDLYNQKINENKIELEEILRDIIYISENLTIDKALERIRKEKLQLAIVVDEYGGTSGVVTIEDILEEIVGEIQ”, the “soluble on expression in E. coli” value is reported as “soluble”.
In the case of “MGSDKIHHHHHHMKCNDKLAPFEVFDHVVNKKLSFRHVTMDDVDMLHSWMHEEHVIPYWKLNIPLVDYKKHLQTFLNDDHQTLMVGAINGVPMSYWESYWVKEDIIANYYPFEEHDQGIHLLIGPQEYLGQGLIYPLLLAIMQQKFQEPDTNTIVAEPDRRNKKMIHVFKKCGFQPVKEVELPDKIGLLMKCEQNVFEKRWSDWKMNKF”, the “soluble on expression in E. coli” value is reported as “not soluble”.
In the case of “MKFFVFALILALMLSMTGADSHAKRHHGYKRKFHEKHHSHRGYRSNYLYDNLEHHHHHH”, the “soluble on expression in E. coli” value is reported as “not soluble”.
With “METLHTQEDIIKMLDSLLRPAEPFWNEFYANREKDVPFFENVPDENLVSYIQKKRVSKGKVLELGCGPGRNAIYLANEGFDVTAVDVSIEGINWAKERALAKGVEIEFICDSIFNLEVQNEFDFVYDSGCLHHIPPHRRVNYVDLIKNALKSGGYFGLTCFAAGDLDERNGSEITDWDVYRGWSLQGGLAYSEEKLREIFKGFEVIEIRKMEQIEQPNTMFGESFLWTALFKKNLEHHHHHH” the “soluble on expression in E. coli” value was “not soluble”.
For “MGSDKIHHHHHHMQDSMYSALFGALTNEHRLNNIANNLANVNTTGYKRDVLAFKDTFLSFAHDEVMEPIPNVRSKKMFPEPIHIAKPRIALAKTDFSQGSLKLTGGTLDMAVHGDGFFKVRTPDGEFYTRNGNFRQTSDGQLVTQQGWPVLGAGGDIQIPPRANLTVAENGTIYADGEEIGQVQVVTLDNLDALEKQGSNLFRLREGAEAQEVPVENPVVLQGFLETANVEVVTEMVNMIEANRQFEAYQKIMQTTDAVDKMATTQVGRGRA”, the “soluble on expression in E. coli” value was “not soluble”.
With “MGSDKIHHHHHHMAYNDSTKQYQRMLASYTRTGIETAIPGTKEEGIMRYRTMIYTIVNESLSTSYPLTRQLLTAQEWDDTVHRYFSTHACTSPYLWRMPLEFYEYIQEEQSALLIKYPCLSDLLLFEWVEIEVFMMEDEEVLHKTEGAVETDALVLNPACAVQYFQYPVYAKRAAEITPADAAHYFMLTHRNPETGNVAFLEIAPMFARMFEWLTEEAMSVDQLISRFTEESQLALAADSRINIVSFFKNCLSKRIILGFN” the “soluble on expression in E. coli” value was “not soluble”.
In the case of “MAKYHDIASPAYILEEDLLRRNLSLIASVADRTGVEIILAFKAYALWRTFPIIREYVPHSTASSVWEARLAFEEMGAPAHTFSPAYTPEEFPEILRYSSHVTFNSLSQYYLLSPMVKNVGVSLGLRINPEYSAVETALYNPCAPGSRFGVSASELGDTLPEGIEGLHFHTLCESTGYELEKTLKIIEDRFASVLEQA”, the “soluble on expression in E. coli” value is reported as “not soluble”.
In the case of “MLVTGLEILRKARAEGYGVGAFNTNNMEFTQAILEAAEEMKSPVILALSEGAMKYGGRALTRMVVALAQEARVPVAVHLDHGSSYESVLKALREGFTSVMIDKSHEDFETNVRETKRVVEAAHAVGVTVEAELGRLAGIEEHVAVDEKDALLTNPEEARIFMERTGADYLAVAIGTSHGAYKGKGRPFIDHPRLARIAELVPAPLVLHGASAVPQELVERFRAAGGEIGEASGIHPEDIKKAISLGIAKINTDTDLRLAFTALVRETLGKNPKEFDPRKYLGPAREAVKEVVKSRMELFGSVGRA”, the “soluble on expression in E. coli” value is reported as “soluble”.
For “MSEFLTHPFEPFFDKDSKILILGSFPSIKSRQDGFYYQHPRNRFWPILETLFNAKLENITEQQAFLRKKHIALWDVLQSCKIKNSDDKTISYAKANDLNLILSQTKIQAIFTTGQSAYRFFVKFHPRLEAIALPSTSPANLNFSFEQLLQNYEIIKKFTKLEHHHHHH”, the “soluble on expression in E. coli” value was “soluble”.
